Where a chain is given by its changes, count along the chain named. In names and notes the source's numbering stands.
B1: 62C02: anti-MMP13 Nanobody, profile 2, SEQ ID NO: 11 (protein)
VHH: EVQLVESGGALVRPGGSLRLSCAASGFAFSAAYMSWVRQAPGRGLEWVSSISDDGSKTYYADSVKGRFTISRDNAKNTVYLQMNNLKPDDTAVYYCNTGYGATTTRPGRYWGQGTQVTVSS
B2: 529C12: anti-MMP13 Nanobody, profile 2, SEQ ID NO: 9 (protein)
VHH: DVQLVESGGGLVQPGGSLRLSCVASGSIFSINAMGWYRQAPGKQRELVAAISSGGSTYYADSVKGRFTISRDNSKNTVYLQMNSLRPEDTAVYYCNAAVDASRGLPYELYYYWGQGTLVTVSS
B3: 517A01: anti-MMP13 Nanobody, profile 2, SEQ ID NO: 10; C010100087 is the parental of Table 6.7.1D (protein)
VHH: DVQLVESGGGLVQPGGSLRLSCAASGRTFSSYAMGWFRQAPGKEREFVAAISWSGGSTYYADSVKGRFTISRDNSKNTVYLQMNSLRPEDTAVYYCTAALAVYGPNRYRYGPVGEYNYWGQGTLVTVSS
B4: C010100649: C0101517A01 sequence optimization variant, mutations N100bS, N101Q (protein)
VHH: B3 VHH with N106S, N117Q
B5: C010100647: C0101517A01 sequence optimization variant, mutations N100bQ, N101V (protein)
VHH: B3 VHH with N106Q, N117V
B6: C010100650: C0101517A01 sequence optimization variant, mutations N100bS, N101V (protein)
VHH: B3 VHH with N106S, N117V
B7: C010100648: C0101517A01 sequence optimization variant, mutations N100bQ, N101Q (protein)
VHH: B3 VHH with N106Q, N117Q
B8: 80A01: anti-MMP13 Nanobody, profile 2, SEQ ID NO: 12 (protein)
VHH: EVQLVESGGGLVQPGGSLRLSCAASGFTLAYYSIGWFRQAPGKEREGVSCISSGIDGSTYYADSVKGRFTISRDNAKNTMYLQMNNLKPEDTGVYYCAADPSHYYSEYDCGYYGMDYWGKGTLVTVSS
B9: 40E09: anti-MMP13 Nanobody, profile 1, SEQ ID NO: 1 (protein)
VHH: EVQLVESGGGSVQAGGSLRLSCAASGSTFSRYSMNWYRQAPGKQREFVAGISVGRITNYAVSVRGRFTISRDNAEGTGYLQMNSLKPEDTAVYYCNAGGLQGYWGLGTQVTVSS
B10: 516G08: anti-MMP13 Nanobody, profile 2, SEQ ID NO: 13 (protein)
VHH: DVQLVESGGGLVQPGGSLRLSCAGSGSIFRINVMAWYRQAPGKQRELVAAITSGGTTNYADSVKGRFTISRDNSKNTVYLQMNSLRPEDTAVYYCYADIGWPYVLDYDFWGQGTLVTVSS

Tests used:
[1] = thermal shift assay (TSA); assay type: physicochemical; conditions: for Tm at pH 7: pH 7, monovalent Nanobodies; for TSA Tm (° C.)@ pH 7: C0101517A01 2nd round sequence optimization variants
Procedure: TSA was carried out with 5 μl of purified monovalent Nanobodies in essence according to Ericsson et al. (2006 Anals of Biochemistry, 357: 289-298).
The thermal stability of the wildtype anti-MMP13 Nanobodies was investigated in a thermal shift assay (TSA).

[2] = analytical size exclusion chromatography (aSEC); assay type: physicochemical; conditions: main peak
Procedure: Analytical SEC experiments were performed on an Ultimate 3000 machine (Dionex) in combination with a Biosep-SEC-3 (Agilent) column.
The tendency for multimerisation and aggregation of a selected panel of 5 representative anti-MMP13 Nanobodies was investigated by analytical size exclusion chromatography (aSEC).

[3] = SDS-Page; assay type: physicochemical
[4] = temperature stress; assay type: physicochemical; conditions: forced oxidation and temperature stress conditions
Procedure: Nanobody samples (1-2 mg/ml) were stored in PBS for four weeks at −20° C. (negative control) 25 and 40° C. After this incubation period, Nanobodies were digested with Trypsin or LysC. Peptides of stressed and control samples were then analyzed by means of RPC on a Series 1290 machine (Agilent Technologies) over an Acquity UPLC BEH300-C18 column (Agilent Technologies) at 60° C. coupled to a Q-TOF mass spectrometer (6530 Accurate Mass Q-TOF (Agilent))
(§1) In order to assess potential PTM, forced oxidation and temperature stress was applied on the lead panel.

[5] = target: T1, MMP13 (Homo sapiens, UniProt P45452); test: fluorogenic peptide assay for sequence optimization variants and NNK libraries (species not stated); assay type: biochemical; conditions: C0101517A01 2nd round sequence optimization variants
Procedure: (§2) The setup of human, cynomolgus, rat, dog and bovine MMP13 fluorogenic peptide assays, as well as human MMP1 and MMP14 fluorogenic peptide assays is in brief as follows: activated MMP was incubated with fluorogenic peptide substrate Mca-PLGL-Dpa-AR-NH2 (R&D Systems #ES001) and a ⅕ dilution of periplasmic extract or a dilution series of purified Nanobody/positive control (total volume=20 μl in assay buffer 50 mM Tris pH 7.5, 100 mM NaCl, 10 mM CaCl2, 0.01% Tween20), for 2 h at 37° C.
However, the degree of isomerization and oxidation differed at the assessed conditions and were just below or above the applied threshold in each case. Eventually, amino acid residues 54-55, 100d-100e, M100j and 101-102 were identified as the residues responsible for the PTM. […] In order to attempt accommodating the different requirements, […] were constructed in which these residues were mutated, and subsequently screened in the fluorogenic peptide assay to evaluate possible potency losses as well as screened for biophysical properties (Tm).
Eventually, amino acid residues N100b and N101 were identified as residues sensitive to deamidation via temperature stress experiments. However, these residues are located in the CDR3 region, and potentially involved in target binding. Thus, knocking out the deamidation sites could have an impact on binding.

[6] = forced oxidation; assay type: physicochemical; conditions: forced oxidation and temperature stress conditions
Procedure: Nanobody samples (1 mg/ml) were subjected for four hours at RT and in the dark to 10 mM H2O2 in PBS, in parallel with control samples without H2O2, followed by buffer switch to PBS using Zeba desalting spin columns (0.5 ml) (Thermo Scientific). Stressed and control samples were then analyzed by means of RPC on a Series 1200 or 1290 machine (Agilent Technologies) over a Zorbax 300SB-C3 column (Agilent Technologies) at 70° C. Oxidation of Nanobodies was quantified by determination of % peak area of pre-peaks occurring as a result of oxidative stress, compared to the main protein peak.
as §1

[7] = target: rat MMP13 (Rattus norvegicus, UniProt P23097); test: adapted (more sensitive) rat fluorogenic peptide assay; assay type: biochemical; conditions: 0.15 nM MMP13 instead of 1.33 nM
Procedure: as §2
As best species cross-reactive binder (cf. Example 6.4.2) Nanobody 40E09 was selected as representative of profile 1 Nanobodies. For profile 2, three Nanobodies were selected: 516G08, 62C02 and 517A01. Profile 1 and profile 2 Nanobodies were combined in a bivalent format with a 35GS linker (see Table 6.5; Nb(A)-35GS-Nb(B)). The bivalent Nanobodies were cloned into pAX205, transformed into P. pastoris, expressed and purified according to standard procedures. […] Bivalent constructs were tested in this adapted fluorogenic peptide assay as well as in the human fluorogenic collagen assay.

[8] = target: T2, activated MMP13 (Homo sapiens, UniProt P45452); test: human fluorogenic collagen assay (DQ Collagen type I); assay type: biochemical; conditions: Table 6.5
Procedure: In brief, the setup of this assay is as follows: 100 μg/ml DQ™ Collagen, type I from Bovine skin (fluorescein conjugate; Molecular Probes #D-12060 lot 1149062) was incubated with 10 nM activated MMP13 and a dilution series of purified Nanobody/positive control, for 2 h at 37° C. in 40 μl assay buffer (50 mM Tris-Cl pH 7.5, 100 mM NaCl, 10 mM CaCl2, 0.01% Tween-20).
(§3) The potency/efficacy of the Nanobodies was tested in the fluorogenic peptide assay, set up for different MMP13 orthologues and in the human collagenolytic assay (both assays were also used during screening, see Example 6.3). In addition, a second collagen-based assay (fluorogenic collagen assay) using higher Collagen concentrations in comparison with the collagenolytic assay was established to simulate the high Collagen concentration conditions in cartilage in which the MMP13 inhibitor is expected to be active. In this assay the fluorescence of the intact FITC-labelled Collagen substrate is low due to the reciprocal quenching effect of the fluorophores. Upon cleavage, quenching is lost and fluorescence increases.
In FIG. 1 the dose response curves for inhibition of activated human MMP13 when using high concentrations of bovine Collagen I (fluorogenic Collagen assay) are depicted.

[9] = target: human full-length MMP13 (Homo sapiens, UniProt P45452); test: competition ELISA against biotinylated 40E09 (epitope binning); assay type: binding; conditions: 0.6 nM biotinylated 40E09
Procedure: FIG. 3: Competition ELISA with 0.6 nM biotinylated 40E09 against a panel of profile 1 and profile 2 Nanobodies on human full-length MMP13, coated via mouse anti-human MMP13 mAb (R&D Systems #MAB511). MMP13 was activated via incubation with APMA for 90 min at 37° C.
For epitope-binning a panel of monovalent Nanobodies derived from profile 1 and profile 2 were tested in a competition ELISA against the purified Nanobody 40E09 (profile 1).

[10] = target: T2, activated MMP13; test: human collagenolytic assay (human Collagen II); assay type: biochemical; conditions: low Collagen concentration conditions
Procedure: The setup of this assay is in brief as follows: 250 ng/ml immunization grade human Collagen II (Chondrex #20052) was incubated with 5 nM activated MMP13 in 100 μl assay buffer (50 mM Tris-Cl pH 7.5, 100 mM NaCl, 10 mM CaCl2, 0.01% Tween-20). After 1.5 h incubation at 35° C., the reaction was neutralized with EDTA (10 μl of 30 mM stock). […] Remaining intact Collagen was detected via ELISA (reagents provided in Type II Collagen Detection kit (Chondrex #6009)).

[11] = target: T1, MMP13; test: human MMP13 fluorogenic peptide assay; assay type: biochemical
Procedure: as §2, §3

Molecule | Tm at pH 7 [1] [°C] | relative area [2] [%] | SDS-Page results [3] [band] | TSA Tm (° C.)@ pH 7 [1] [°C] | IC50 [5] [nM] | other results
B1 | 76.4 | 100 |  |  |  | 
B2 | 82.7 | 100 | 1 |  |  | 
B3 | 77.8 | 100 | 1 | 78 |  | deamidation [4]: prone to deamidation
B4 |  |  |  | 79 | 2 | 
B5 |  |  |  | 81 | 2.1 | 
B6 |  |  |  | 81 | 2.1 | 
B7 |  |  |  | 81 | 2.8 | 
B8 | 68.6 | 95 |  |  |  | Met-oxidation [6]: prone; Asp-isomerization [4]: prone to Asp-isomerization
B9 | 68.6 | 100 | 1 |  |  | IC50 (adapted) rat fluorogenic peptide assay [7]: neutral; IC50 human fluorogenic collagen assay [8]: partial; competition with 40E09 in competition ELISA [9]: compete with 40E09; efficacy / inhibition in the collagenolytic assay [10]: positive; inhibition in the fluorogenic peptide assay (screening) [11]: incomplete inhibition
B10 | 65.2 |  |  |  |  | 
